How the values were obtained:
alpha fetoprotein (AFP) = molecular target: T1, alpha fetoprotein (AFP) (UniProt P02771 19-609); test: electrochemical aptasensor (MB peak current ratio); 10 ng/mL AFP; 0.01 M PBS (sodium phosphate) pH 7.4; BSA-blocked electrode; CEA incubation temperature and time not in the material; conditions: protein: commercial
T1 sequence: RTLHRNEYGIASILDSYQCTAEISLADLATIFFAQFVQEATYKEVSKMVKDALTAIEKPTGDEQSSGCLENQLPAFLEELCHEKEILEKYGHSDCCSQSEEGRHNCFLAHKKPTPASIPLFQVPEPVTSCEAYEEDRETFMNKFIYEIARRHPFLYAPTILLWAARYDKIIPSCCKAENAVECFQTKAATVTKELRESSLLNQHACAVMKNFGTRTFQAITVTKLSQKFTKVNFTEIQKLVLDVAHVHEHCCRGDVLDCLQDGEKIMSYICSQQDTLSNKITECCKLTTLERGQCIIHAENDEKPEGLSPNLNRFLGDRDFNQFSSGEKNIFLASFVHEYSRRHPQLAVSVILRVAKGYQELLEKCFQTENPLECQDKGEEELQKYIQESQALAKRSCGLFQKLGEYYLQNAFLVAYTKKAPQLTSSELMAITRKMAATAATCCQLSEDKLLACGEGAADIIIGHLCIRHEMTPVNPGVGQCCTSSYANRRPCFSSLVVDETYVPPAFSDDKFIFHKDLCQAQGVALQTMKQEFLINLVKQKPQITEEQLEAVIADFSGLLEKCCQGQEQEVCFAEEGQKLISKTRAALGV

C-reactive protein (CRP) = molecular target: T2, C-reactive protein (CRP) (UniProt P02741 19-224); test: electrochemical aptasensor (MB peak current ratio); 10 ng/mL CRP; 0.01 M PBS (sodium phosphate) pH 7.4; BSA-blocked electrode; CEA incubation temperature and time not in the material; conditions: protein: commercial; chain copies: 5
T2 sequence: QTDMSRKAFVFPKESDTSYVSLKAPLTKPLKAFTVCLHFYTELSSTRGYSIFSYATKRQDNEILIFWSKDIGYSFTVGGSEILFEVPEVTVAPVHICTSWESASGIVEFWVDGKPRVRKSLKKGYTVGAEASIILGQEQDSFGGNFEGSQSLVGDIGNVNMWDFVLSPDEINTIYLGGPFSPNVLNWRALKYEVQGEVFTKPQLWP

[1] = molecular target: prostate-specific antigen (PSA) (UniProt P07288 25-261); test: electrochemical aptasensor (MB peak current ratio); 10 ng/mL PSA; 0.01 M PBS (sodium phosphate) pH 7.4; BSA-blocked electrode; CEA incubation temperature and time not in the material; conditions: protein: commercial
prostate-specific antigen (PSA), sequence (P07288 25-261): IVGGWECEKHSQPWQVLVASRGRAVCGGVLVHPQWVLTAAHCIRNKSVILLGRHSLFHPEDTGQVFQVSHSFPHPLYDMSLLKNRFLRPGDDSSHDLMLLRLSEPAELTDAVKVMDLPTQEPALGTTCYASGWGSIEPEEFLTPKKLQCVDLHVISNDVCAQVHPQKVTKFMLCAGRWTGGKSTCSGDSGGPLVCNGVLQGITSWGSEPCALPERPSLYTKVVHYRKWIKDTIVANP

[2] = molecular target: cancer antigen 15-3 (CA15-3) (UniProt P15941 24-1097); test: electrochemical aptasensor (MB peak current ratio); 10 uU/mL CA15-3; 0.01 M PBS (sodium phosphate) pH 7.4; BSA-blocked electrode; CEA incubation temperature and time not in the material; conditions: protein: commercial
cancer antigen 15-3 (CA15-3), sequence (P15941 24-1097): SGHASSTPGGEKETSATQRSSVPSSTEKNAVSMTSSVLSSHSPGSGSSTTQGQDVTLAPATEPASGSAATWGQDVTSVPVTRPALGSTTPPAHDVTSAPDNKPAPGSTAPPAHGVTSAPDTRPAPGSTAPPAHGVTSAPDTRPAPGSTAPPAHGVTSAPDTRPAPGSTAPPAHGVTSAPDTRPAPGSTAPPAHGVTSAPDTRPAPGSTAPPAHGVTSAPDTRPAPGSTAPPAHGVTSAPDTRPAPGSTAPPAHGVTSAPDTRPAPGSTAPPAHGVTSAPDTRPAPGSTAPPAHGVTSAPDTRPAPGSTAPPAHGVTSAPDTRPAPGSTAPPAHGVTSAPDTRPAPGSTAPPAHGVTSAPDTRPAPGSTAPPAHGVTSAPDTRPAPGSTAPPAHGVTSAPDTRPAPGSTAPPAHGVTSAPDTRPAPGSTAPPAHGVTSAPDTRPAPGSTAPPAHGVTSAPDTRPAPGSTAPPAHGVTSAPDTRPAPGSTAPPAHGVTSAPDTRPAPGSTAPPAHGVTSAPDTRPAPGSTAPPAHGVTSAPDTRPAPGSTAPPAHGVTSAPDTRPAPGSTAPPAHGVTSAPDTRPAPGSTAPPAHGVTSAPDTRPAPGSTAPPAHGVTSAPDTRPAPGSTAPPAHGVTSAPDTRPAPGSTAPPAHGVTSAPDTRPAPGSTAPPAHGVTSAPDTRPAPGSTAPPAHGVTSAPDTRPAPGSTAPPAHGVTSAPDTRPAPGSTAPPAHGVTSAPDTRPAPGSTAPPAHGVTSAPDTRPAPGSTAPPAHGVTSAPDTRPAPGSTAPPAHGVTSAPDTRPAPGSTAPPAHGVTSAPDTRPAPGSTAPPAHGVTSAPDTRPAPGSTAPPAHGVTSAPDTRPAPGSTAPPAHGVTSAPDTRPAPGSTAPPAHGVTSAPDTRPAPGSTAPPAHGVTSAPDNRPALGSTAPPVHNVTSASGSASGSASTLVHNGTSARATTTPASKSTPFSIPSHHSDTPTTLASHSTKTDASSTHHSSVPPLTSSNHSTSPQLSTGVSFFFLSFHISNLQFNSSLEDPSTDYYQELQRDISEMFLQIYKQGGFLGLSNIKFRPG

[3] = molecular target: carcinoembryonic antigen (CEA) (UniProt P06731 35-685); test: electrochemical aptasensor (DPV, CV, EIS); 1 pg/mL-1 ug/mL CEA; LOD 0.22 pg/mL (not a Kd); 0.01 M PBS (sodium phosphate) pH 7.4; BSA-blocked electrode; CEA incubation temperature and time not in the material; conditions: protein: commercial
carcinoembryonic antigen (CEA), sequence (P06731 35-685): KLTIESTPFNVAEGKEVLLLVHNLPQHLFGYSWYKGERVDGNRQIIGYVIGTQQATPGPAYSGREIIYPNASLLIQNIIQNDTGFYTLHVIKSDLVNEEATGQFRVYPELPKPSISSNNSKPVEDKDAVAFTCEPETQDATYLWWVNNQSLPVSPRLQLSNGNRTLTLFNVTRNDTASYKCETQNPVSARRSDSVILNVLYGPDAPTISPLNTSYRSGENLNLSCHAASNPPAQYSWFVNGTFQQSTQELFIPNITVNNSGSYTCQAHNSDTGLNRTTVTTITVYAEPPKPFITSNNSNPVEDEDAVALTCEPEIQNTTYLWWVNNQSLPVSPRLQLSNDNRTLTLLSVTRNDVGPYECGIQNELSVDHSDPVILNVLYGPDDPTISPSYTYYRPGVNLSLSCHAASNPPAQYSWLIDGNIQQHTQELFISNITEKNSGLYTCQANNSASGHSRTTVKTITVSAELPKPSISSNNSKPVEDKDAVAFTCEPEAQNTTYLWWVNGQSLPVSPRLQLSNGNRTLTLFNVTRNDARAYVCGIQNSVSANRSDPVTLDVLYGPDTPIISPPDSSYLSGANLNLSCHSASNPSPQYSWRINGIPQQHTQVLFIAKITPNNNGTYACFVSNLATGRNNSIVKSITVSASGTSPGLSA

ATACAGCTTCAATT (ssDNA, 3'-NH2, immobilized via glutaraldehyde on amino-silica film) [CEA aptamer]: no binding (alpha fetoprotein (AFP)); no binding (C-reactive protein (CRP)); no binding [1]. ATACAGCTTCAATT (ssDNA, 3'-NH2, immobilized via glutaraldehyde on amino-silica film) [CEA aptamer]: no binding [2]; binds [3].

— publication PMC10221436, “Reagentless Electrochemical Detection of Tumor Biomarker Based on Stable Confinement of Electrochemical Probe in Bipolar Silica Nanochannel Film”
